The text below walks through data of PMC4928094, “The first characterization of multidrug and toxin extrusion (MATE/SLC47) proteins in zebrafish (Danio rerio)” (Scientific Reports, 2016).

One data set deals with T1, zebrafish Mate3 (Danio rerio, UniProt A1L1P9).
T1 sequence (A1L1P9 1-590): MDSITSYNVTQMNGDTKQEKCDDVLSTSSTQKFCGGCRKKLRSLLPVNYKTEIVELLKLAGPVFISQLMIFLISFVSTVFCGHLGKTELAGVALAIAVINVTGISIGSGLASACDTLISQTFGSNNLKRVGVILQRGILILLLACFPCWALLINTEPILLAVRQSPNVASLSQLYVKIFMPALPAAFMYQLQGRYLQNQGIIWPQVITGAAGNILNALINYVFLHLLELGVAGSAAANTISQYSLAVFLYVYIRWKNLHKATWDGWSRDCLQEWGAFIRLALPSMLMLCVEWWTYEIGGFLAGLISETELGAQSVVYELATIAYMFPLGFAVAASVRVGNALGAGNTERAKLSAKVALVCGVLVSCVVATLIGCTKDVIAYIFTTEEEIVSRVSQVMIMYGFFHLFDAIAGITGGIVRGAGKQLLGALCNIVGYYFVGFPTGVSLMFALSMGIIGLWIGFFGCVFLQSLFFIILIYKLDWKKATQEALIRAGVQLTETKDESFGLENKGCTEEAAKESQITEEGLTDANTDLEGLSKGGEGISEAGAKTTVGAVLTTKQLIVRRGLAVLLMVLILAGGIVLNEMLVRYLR
The experiment in a line: Uptake of fluorescent dyes by HEK293T cells overexpressing zebrafish Mate3. The following applies: dye uptake, mean ± SD; for Km: triplicate, representative experiment. As to the method: (§1) HEK293T cells were transiently transfected as described previously[31] using the PEI (polyethyleneimine) reagent in 48-well plates. Cells were in parallel transfected with pcDNA3.1/His/LacZ plasmid and transfection efficiency was evaluated 24 h after transfection with the LacZ staining protocol.
(§2) HEK293T cells overexpressing respective single zebrafish Mate transporter were used for further experiments. Cell uptake of all substrates except DAPI was measured in sodium based transport medium (145 mM NaCl, 3 mM KCl, 1 mM CaCl2, 0.5 mM MgCl2, 5 mM glucose and 10 mM Tris, pH 8.4). Briefly, after 5 minute incubation period, the cells were rapidly washed two times with ice-cold phosphate-buffered saline (PBS), lysed in 250 μL of 0.1% sodium dodecyl sulphate for 30 min and transferred to the black 96-well plates where fluorescence was measured using the microplate reader (Infinite M200, Tecan, Salzburg, Austria) at following excitation and emission wavelengths: ASP^+, 450/590 nm; EtBr, 535/590 nm; Rh123, 485/530 nm; berberine, 355/540 nm; amiloride, 366/418 nm. […] DAPI fluorescence was measured at 360 and 460 nm […], respectively. The uptake into vector-transfected HEK293T cells (mock cells) was subtracted to obtain transporter-specific uptake.
(§3) Calibration curves for all substrates were generated in 0.1% SDS and in the cell matrix dissolved in 0.1% SDS. […] Using the calibration curves, uptake was expressed as pmol of substrate per mg of protein per minute. Total cell protein content was determined according to the Bradford method.
All assays were performed in 3–5 independent experiments run in triplicates. Data shown on related figures represent mean ± standard errors (SE) or standard deviations (SD). All calculations were performed using GraphPad Prism 5.00 for Windows (GraphPad Software, San Diego, California, USA) as described below. The kinetic parameters, Km and Vmax values were calculated using the Michaelis-Menten equation,
where V is velocity (picomoles of substrate per milligram of proteins per minute), Vmax is maximal velocity, [S] is substrate concentration and Km is the Michaelis Menten constant. The uptake into vector-transfected HEK293 cells was subtracted to obtain transporter-specific uptake.

In the next data set the target is zebrafish Mate4 (Danio rerio, UniProt U3Q0C3). The experiment in a line: Uptake of fluorescent dyes by HEK293T cells overexpressing zebrafish Mate4. As to conditions: dye uptake, mean ± SD, NT = no transport found. As to the method: as §1, §2, §3
Sequence of zebrafish Mate4 (U3Q0C3 entry or part of it): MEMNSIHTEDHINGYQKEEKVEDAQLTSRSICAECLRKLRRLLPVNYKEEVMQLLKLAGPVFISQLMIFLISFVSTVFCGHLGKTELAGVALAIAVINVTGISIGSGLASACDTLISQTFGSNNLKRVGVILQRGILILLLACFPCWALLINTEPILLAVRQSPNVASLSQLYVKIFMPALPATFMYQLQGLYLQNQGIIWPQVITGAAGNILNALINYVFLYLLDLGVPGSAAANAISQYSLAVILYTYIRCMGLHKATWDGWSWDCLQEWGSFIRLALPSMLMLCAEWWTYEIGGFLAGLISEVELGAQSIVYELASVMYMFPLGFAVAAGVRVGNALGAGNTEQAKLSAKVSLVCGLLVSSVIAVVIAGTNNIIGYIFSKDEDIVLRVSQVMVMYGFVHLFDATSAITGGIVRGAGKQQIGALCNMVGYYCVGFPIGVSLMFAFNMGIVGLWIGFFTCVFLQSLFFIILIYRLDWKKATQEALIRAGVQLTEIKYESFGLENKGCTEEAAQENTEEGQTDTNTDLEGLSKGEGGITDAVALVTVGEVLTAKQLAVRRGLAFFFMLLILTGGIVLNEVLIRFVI
(§4) All assays were performed in 3–5 independent experiments run in triplicates. Data shown on related figures represent mean ± standard errors (SE) or standard deviations (SD). All calculations were performed using GraphPad Prism 5.00 for Windows (GraphPad Software, San Diego, California, USA) as described below. The kinetic parameters, Km and Vmax values were calculated using the Michaelis-Menten equation, […]

A further data set concerns the target zebrafish Mate6 (Danio rerio, UniProt A1L2E7). The experiment in a line: Uptake of fluorescent dyes by HEK293T cells overexpressing zebrafish Mate6. As to conditions: dye uptake, mean ± SD. As for the experimental part: as §1, §2, §3, §4
The target of the next data set is zebrafish Mate7 (Danio rerio, UniProt U3PTD6). The experiment in a line: Uptake of fluorescent dyes by HEK293T cells overexpressing zebrafish Mate7. As to conditions: dye uptake, mean ± SD. As to the method:
as §1, §2, §3, §4

In a further data set the target is zebrafish Mate8 (Danio rerio, UniProt A0A8M6YZ09). The experiment in a line: Uptake of fluorescent dyes by HEK293T cells overexpressing zebrafish Mate8. The following applies: dye uptake, mean ± SD, NT = no transport found. As to the method:
as §1, §2, §3, §4

Substrate in data set [1]: CN(C)c1ccc(/C=C/c2cc[n+](C)cc2)cc1
The experiment in a line: cells, lysate or membranes. The following applies: dye uptake, HEK293T, mean ± SD.

Substrate in data set [2]: COC(=O)c1ccccc1-c1c2ccc(=N)cc-2oc2cc(N)ccc12
The experiment in a line: cells, lysate or membranes. The following applies: dye uptake, HEK293T, mean ± SD.

Substrate in data set [3]: COc1ccc2cc3[n+](cc2c1OC)CCc1cc2c(cc1-3)OCO2
The experiment in a line: cells, lysate or membranes. As to conditions: dye uptake, HEK293T, mean ± SD.

Substrate in data set [4]: N=C(N)NC(=O)c1nc(Cl)c(N)nc1N
The experiment in a line: cells, lysate or membranes. The following applies: dye uptake, HEK293T, mean ± SD.

[5] abbreviates: other: Mate3, triplicate, representative experiment.
Where [6] appears, read: other: Mate8, NT = no transport found.

Turning to `N=C(N)c1ccc(-c2cc3ccc(C(=N)N)cc3[nH]2)cc1` [DAPI, 4′,6-diamidino-2-phenylindole], the vmax on zebrafish Mate3 is 436 ± 21.8 pmol/mg protein/min; at zebrafish Mate4, 47.7 ± 2.27 pmol/mg protein/min; at zebrafish Mate6 it was 44.3 ± 1.80 pmol/mg protein/min; at zebrafish Mate7 it was 193 ± 9.15 pmol/mg protein/min; on zebrafish Mate8, 24.4 ± 0.70 pmol/mg protein/min. Besides, the Km is 2.83 ± 0.34 µM on zebrafish Mate3; 0.29 ± 0.04 µM on zebrafish Mate4; 0.26 ± 0.05 µM at zebrafish Mate6; 1.44 ± 0.19 µM on zebrafish Mate7; 0.55 ± 0.07 µM on zebrafish Mate8.

For the molecule `CC[n+]1c(-c2ccccc2)c2cc(N)ccc2c2ccc(N)cc21` [EtBr, ethidium bromide], at zebrafish Mate3, the vmax worked out at 825 ± 25.5 pmol/mg protein/min and the Km came to 5.56 ± 0.5 µM.

Regarding `COC(=O)c1ccccc1-c1c2ccc(=N)cc-2oc2cc(N)ccc12` [Rh123, rhodamine 123], the vmax was 105 ± 5.16 pmol/mg protein/min on zebrafish Mate3; 1.03 ± 0.03 pmol/mg protein/min at zebrafish Mate4; 55.6 ± 1.48 pmol/mg protein/min on zebrafish Mate6; 4.79 ± 0.17 pmol/mg protein/min on zebrafish Mate7; 12.3 ± 0.61 pmol/mg protein/min at zebrafish Mate8.

B1: zebrafish Mate6 (Danio rerio) (protein)
chain: MPEAGGPLANTEQITEATAPSSKLLGCSCVRRWVPLAYREELYHVLCLTGPLLISRILSFLLPFVTTIFCGHLGNAELAGYALASATVNVTTTATGCGLALACDTLVSQTFGSKNHKRVGEILQRSMLILLLFCLPCWAILINAESILLALKQEPEVARIAQLYVTAYLPAVPAMFLHYLQVSYLQNQGIILPQMYTAVAANILNVATNYILLHAMKLGVKGSAAANSISQITICLLLFAYIRWKKLHLKTWGGWSTASLQEWGSYMKLAIPSTLMLCFEWWIYEIGGFLAGMLGEVDLAAQHVLLEIGSIAYMFPLGVHAAACVRVGNALGAGDTVRALITSKVTLMISGILAFAQGIGIALTKSKLGYIFTSDESIVAIVSQNLTLYVFLQFFDALVCVCSGILLGAGKQKIAAVSNLICYYCIGLPVGISLMFLAELRILGLWLGLLICVIIQTCFFTTLIFKLDWKKVTEQAQKRAGKHAKVVCLPKAPLIGPVVETLVSEDQDNTEQTDGTSSIPEPWDDITGNKAQLTSSSSEVSSYIQVSTQDQDKLASECGEGQPKVLLSIKQLVLRRGLTLLITLLILIAGITVHVVCPLPEHSVQRQSNFTNDSGNFSTPFSILNITMS
B1: the Km in [1] (other: Mate6) came out at 6.23 ± 1.02 µM; in data set [2] (other: Mate6), 1.73 ± 0.16 µM; in [3] (other: Mate6) it was 8.35 ± 1.00 µM; in [4] (other: Mate6), 11.1 ± 2.12 µM. Further, the Vmax worked out at 160 ± 10.8 pmol/mg protein/min in [1] (other: Mate6), 215 ± 9.72 pmol/mg protein/min in [3] (other: Mate6) and 24.8 ± 1.54 pmol/mg protein/min in data set [4] (other: Mate6).

B2: zebrafish Mate3 (Danio rerio) (protein)
chain: T1 sequence (A1L1P9 1-590)
In the case of B2, the Km was found to be 13.4 ± 1.55 µM in data set [1] (setting [5]), 8.52 ± 1.25 µM in [2] (setting [5]), 14.4 ± 5.14 µM in [3] (setting [5]) and 33.4 ± 4.57 µM in data set [4] (setting [5]). The Vmax in data set [1] (setting [5]) is on record as 296 ± 14.0 pmol/mg protein/min; in data set [3] (setting [5]) it was 242 ± 46.9 pmol/mg protein/min; in data set [4] (setting [5]), 53.1 ± 4.0 pmol/mg protein/min.

B3: zebrafish Mate8 (Danio rerio) (protein)
chain: MDVSSPTTEASSMEPSTKLFCCRSVRRCIPLVYRQELYHILCMTGPLVASRILNYLLPFVITMFCGRLGNSVLAGYGMASATINITTAATGGGLALAADTLISQTFGGKNLRRVGIILQRSVLILLLFCLPCCALLINTQPILLLLRQDPEVARIAQLYVVCYLPAVPAMFLHQLQVAYLQNQGVILPQMYAGIAANVANVLTNYILLHWLELGVYGSAAANTISQIYICAFLYLYIRWKKLHVETWGGWSCDSLQEWDGYMKLAIPSTMMLCFEWWIYEVGGFLAGMLGELDLAAQHAVIMLAFINYMFPLGIQGAACVRVGNALGAGDTAGAIRTSKVSLTCTAALAVLQGLVLVSTKTVIGFLFTSDRHIVALVSKLLNVYCVLQFFDGLVCVSMGILLGSGQQKIAAVANFFGYYCIGLPLGTSLMFAAKLDVVGFWLGLLICVCVQSSFFIGVIFKFNWERVTKEAVERAGRTKISAMTAPDSITARHRENGDEYITVSAADPNVEPNATGVEEKPPVLLSTSQLVLRRGLTTLAALLILAGGITVHLIVPLPQMFYGAAANFTLNSNFTTPSSFIHSTSASL
As to B3, in data set [1] (setting [6]), the Km worked out at 2.34 ± 0.37 µM and the Vmax is recorded as 22.2 ± 1.09 pmol/mg protein/min. Also, the Km in [2] (setting [6]) was found to be 0.88 ± 0.14 µM.

B4: zebrafish Mate7 (Danio rerio) (protein)
chain: MDVSSPGTDNLSMEPSAKLFCCGFMRRCIPLVYREELYHILRMTGPLLVCRFLNFLLFFVVTMFCGRLGNTVLAGYAMASATINVTAAATGLGLALACDTLVSQTFGSKNLLRVGIILQRGIVILTLFSLPCWALLVNTQPLLLYLGQEPEVARIAQLYVVVYLPAIPAMFLYQLQLSYLQNQGVIKPQMYASAVANVANVIANYFLLYWWDFGVYGSAAANTFAQVFNCFALFCFIRWQKLHEKTWGGWSLEALQDWGSYMKLAIPSTLMTCFEWWIYEVGGFLAGMLSEVDLAAQHVVIMLAYINYMIPLGMQGAACVRVGNALGAGETAAAILTSKVSLISAAVIAIIQGFVLGSTKTVIGYIFTSDESITELVSQLLNIYCPLQFFNGILCVGMGVLLGTGQQKIAAIANLFGYYCVGLPSSIVLMFTAGLQVAGFWLGLLIAVFLLAIFFTVAIFKLNWKKMTEEAIARTGKSANGAANGTMTTEFCSNHRNSFYQVVLNAENGNGYMVVSSQDQDERLNSTAVPEEPNVTGVEEKPPVLLSTTQLVLRRGLTTVAALLILAVGIIIHLTVPLPQVSYGAGANYTVDSNFTTANPIYSTSFI
Turning to B4, the Km in data set [1] (other: Mate7) came out at 3.51 ± 0.27 µM; in [2] (other: Mate7), 0.22 ± 0.03 µM; in data set [3] (other: Mate7) it was 1.76 ± 0.38 µM; in data set [4] (other: Mate7) it was 20.6 ± 4.20 µM. Also, the Vmax is 52.3 ± 1.26 pmol/mg protein/min in data set [1] (other: Mate7), 28.0 ± 2.39 pmol/mg protein/min in [3] (other: Mate7) and 19.8 ± 1.84 pmol/mg protein/min in [4] (other: Mate7).

As usually defined, the Km is the substrate concentration at which the rate is half of its maximum.
